# Laboratory results published in paper PMC11969024 (2025).
# B1: peptide HD2 (from tick evasin EVA4) / CCL17 (biotinylated, synthetic) (parent complex)
# chain 1: EEDDYTAYAPLTCYFT
# chain 2: ARGTNVGRECCLEYFKGAIPLRKLKTWYQTSEDCSRDAIVFVTVQGRAICSDPNNKRVKNAVKYLQSLERS
# B2: peptide HD2 (from tick evasin EVA4) / CCL19 (biotinylated, synthetic) (parent complex)
# chain 1: EEDDYTAYAPLTCYFT
# chain 2: GTNDAEDCCLSVTQKPIPGYIVRNFHYLLIKDGCRVPAVVFTTLRGRQLCAPPDQPWVERIIQRLQRTSAKMKRRSS
# Variants of: B1
row,Variant,enrichment
1,chain 1 EEDDYTAYAYLTCYFT [chain 1 P10Y],-6.08 log2 (difference from the parental peptide)
2,chain 1 EEDDYTAYAPLTCYST [chain 1 F15S],-0.792 log2 (difference from the parental peptide)
3,chain 1 EEDLYTAYAPLTCYFT [chain 1 D4L],-4.56 log2 (difference from the parental peptide)
4,chain 1 EEDDYIAYAPLTCYFT [chain 1 T6I],-6.22 log2 (difference from the parental peptide)
5,chain 1 EQDDYTAYAPLTCYFT [chain 1 E2Q],-0.416 log2 (difference from the parental peptide)
6,chain 1 EEDDYTAYAPLTCHFT [chain 1 Y14H],-3.18 log2 (difference from the parental peptide)
7,chain 1 EEDDYTAYAPLTCKFT [chain 1 Y14K],-7.27 log2 (difference from the parental peptide)
8,chain 1 EEDDYTAYAPLTCIFT [chain 1 Y14I],-2.85 log2 (difference from the parental peptide)
9,chain 1 EEDDYTAYAPLTCSFT [chain 1 Y14S],-5.6 log2 (difference from the parental peptide)
10,chain 1 EEDDYTAYAPLTCGFT [chain 1 Y14G],-6.43 log2 (difference from the parental peptide)
11,chain 1 EEDDYTAYHPLTCYFT [chain 1 A9H],-5.14 log2 (difference from the parental peptide)
12,chain 1 EEDDYTAYMPLTCYFT [chain 1 A9M],-5.43 log2 (difference from the parental peptide)
13,chain 1 EEDDYTAYAPLACYFT [chain 1 T12A],-4.61 log2 (difference from the parental peptide)
14,chain 1 EEDDYTAYAPLRCYFT [chain 1 T12R],-1.85 log2 (difference from the parental peptide)
15,chain 1 EEVDYTAYAPLTCYFT [chain 1 D3V],-5.2 log2 (difference from the parental peptide)
16,chain 1 EEIDYTAYAPLTCYFT [chain 1 D3I],-4.4 log2 (difference from the parental peptide)
17,chain 1 EEDDYTAYAPLTLYFT [chain 1 C13L],-6.33 log2 (difference from the parental peptide)
18,chain 1 EEDDYTAYAPGTCYFT [chain 1 L11G],-8.35 log2 (difference from the parental peptide)

# Variants of: B2
row,Variant,enrichment
1,chain 1 EEWDYTAYAPLTCYFT [chain 1 D3W],0.0843 log2 (difference from the parental peptide)
2,chain 1 EEGDYTAYAPLTCYFT [chain 1 D3G],-6.43 log2 (difference from the parental peptide)
3,chain 1 EEYDYTAYAPLTCYFT [chain 1 D3Y],-0.734 log2 (difference from the parental peptide)
4,chain 1 EELDYTAYAPLTCYFT [chain 1 D3L],-2.95 log2 (difference from the parental peptide)
5,chain 1 EEFDYTAYAPLTCYFT [chain 1 D3F],-3.58 log2 (difference from the parental peptide)
6,chain 1 EEDSYTAYAPLTCYFT [chain 1 D4S],-6.25 log2 (difference from the parental peptide)
7,chain 1 EEDLYTAYAPLTCYFT [chain 1 D4L],-2.61 log2 (difference from the parental peptide)
8,chain 1 EEDIYTAYAPLTCYFT [chain 1 D4I],-2.59 log2 (difference from the parental peptide)
9,chain 1 EEDWYTAYAPLTCYFT [chain 1 D4W],0.498 log2 (difference from the parental peptide)
10,chain 1 EEDMYTAYAPLTCYFT [chain 1 D4M],-3.6 log2 (difference from the parental peptide)
11,chain 1 EEDDYTAYAPLTCYFA [chain 1 T16A],-1.59 log2 (difference from the parental peptide)
12,chain 1 EEDDYTAYAPLTCYFR [chain 1 T16R],-6.57 log2 (difference from the parental peptide)
13,chain 1 EEDDYTAYAPLTCYFF [chain 1 T16F],-0.403 log2 (difference from the parental peptide)
14,chain 1 EEDDYTAYAPLTCYFG [chain 1 T16G],-4.08 log2 (difference from the parental peptide)
15,chain 1 EEDDYTAYAPLTCYFQ [chain 1 T16Q],-5.8 log2 (difference from the parental peptide)
16,chain 1 EEDDYTAYAPLTCYFS [chain 1 T16S],-1.7 log2 (difference from the parental peptide)
17,chain 1 EEDDYTAYAPLTCYFM [chain 1 T16M],0.0438 log2 (difference from the parental peptide)
18,chain 1 EEDDYTAYAPLTCYFC [chain 1 T16C],-6.65 log2 (difference from the parental peptide)
19,chain 1 EEDDYTAYAPLTCYFD [chain 1 T16D],-1.5 log2 (difference from the parental peptide)
20,chain 1 EEDDYTAFAPLTCYFT [chain 1 Y8F],-1.35 log2 (difference from the parental peptide)
21,chain 1 EEDDYTAWAPLTCYFT [chain 1 Y8W],0.479 log2 (difference from the parental peptide)
22,chain 1 EEDDYTAYAPLTCKFT [chain 1 Y14K],-5.55 log2 (difference from the parental peptide)
23,chain 1 EEDDYTAYAPLTCPFT [chain 1 Y14P],-7.82 log2 (difference from the parental peptide)
24,chain 1 EEDDYTAYAPLTCLFT [chain 1 Y14L],-9.46 log2 (difference from the parental peptide)

row,Variant,enrichment
1,chain 1 EEDDYTAYAPLTCRFT [chain 1 Y14R],-7.07 log2 (difference from the parental peptide)
2,chain 1 EEDDYTAYAPLTCGFT [chain 1 Y14G],-9.47 log2 (difference from the parental peptide)
3,chain 1 EEDDYTAYAPLTCFFT [chain 1 Y14F],-2.54 log2 (difference from the parental peptide)
4,chain 1 EEDDYTAYAPLTCYQT [chain 1 F15Q],-4.06 log2 (difference from the parental peptide)
5,chain 1 EEDDYTAYAPLTCYRT [chain 1 F15R],-6.02 log2 (difference from the parental peptide)
6,chain 1 EEDDYTAYAPLTCYVT [chain 1 F15V],-3.63 log2 (difference from the parental peptide)
7,chain 1 EEDDYTAYAPLTCYHT [chain 1 F15H],-3.96 log2 (difference from the parental peptide)
8,chain 1 EEDDYTAYAPLTCYTT [chain 1 F15T],-3.97 log2 (difference from the parental peptide)
9,chain 1 EEDDYTAYAPLTCYPT [chain 1 F15P],-6.33 log2 (difference from the parental peptide)
10,chain 1 EEDDYTAYAPLTCYKT [chain 1 F15K],-4.98 log2 (difference from the parental peptide)
11,chain 1 EEDDYTAYAPLTCYET [chain 1 F15E],-4.2 log2 (difference from the parental peptide)
12,chain 1 EEDDYTAYAPITCYFT [chain 1 L11I],1.76 log2 (difference from the parental peptide)
13,chain 1 EEDDYTAYAPMTCYFT [chain 1 L11M],-1.53 log2 (difference from the parental peptide)
14,chain 1 EEDDYTAYAPPTCYFT [chain 1 L11P],-5.49 log2 (difference from the parental peptide)
15,chain 1 EEDDYTAYAPTTCYFT [chain 1 L11T],-3.41 log2 (difference from the parental peptide)
16,chain 1 EEDDYTAYAPWTCYFT [chain 1 L11W],-0.0314 log2 (difference from the parental peptide)
17,chain 1 EEDDYTAYAPKTCYFT [chain 1 L11K],-3.64 log2 (difference from the parental peptide)
18,chain 1 EEDDYTAYAPRTCYFT [chain 1 L11R],-3.8 log2 (difference from the parental peptide)
19,chain 1 EEDDYTEYAPLTCYFT [chain 1 A7E],-0.397 log2 (difference from the parental peptide)
20,chain 1 EEDDYTMYAPLTCYFT [chain 1 A7M],2.5 log2 (difference from the parental peptide)
21,chain 1 EEDDYTDYAPLTCYFT [chain 1 A7D],2 log2 (difference from the parental peptide)
22,chain 1 EEDDYTKYAPLTCYFT [chain 1 A7K],-3.29 log2 (difference from the parental peptide)
23,chain 1 EEDDYTGYAPLTCYFT [chain 1 A7G],-5.86 log2 (difference from the parental peptide)
24,chain 1 EEDDYTSYAPLTCYFT [chain 1 A7S],-2.1 log2 (difference from the parental peptide)

row,Variant,enrichment
1,chain 1 EEDDYTHYAPLTCYFT [chain 1 A7H],-0.764 log2 (difference from the parental peptide)
2,chain 1 SEDDYTAYAPLTCYFT [chain 1 E1S],-6.42 log2 (difference from the parental peptide)
3,chain 1 FEDDYTAYAPLTCYFT [chain 1 E1F],-0.113 log2 (difference from the parental peptide)
4,chain 1 YEDDYTAYAPLTCYFT [chain 1 E1Y],1.7 log2 (difference from the parental peptide)
5,chain 1 DEDDYTAYAPLTCYFT [chain 1 E1D],0.567 log2 (difference from the parental peptide)
6,chain 1 REDDYTAYAPLTCYFT [chain 1 E1R],-6.95 log2 (difference from the parental peptide)
7,chain 1 MEDDYTAYAPLTCYFT [chain 1 E1M],-5.78 log2 (difference from the parental peptide)
8,chain 1 LEDDYTAYAPLTCYFT [chain 1 E1L],-2.92 log2 (difference from the parental peptide)
9,chain 1 AEDDYTAYAPLTCYFT [chain 1 E1A],-5.3 log2 (difference from the parental peptide)
10,chain 1 PEDDYTAYAPLTCYFT [chain 1 E1P],-6.51 log2 (difference from the parental peptide)
11,chain 1 KEDDYTAYAPLTCYFT [chain 1 E1K],-4.04 log2 (difference from the parental peptide)
12,chain 1 GEDDYTAYAPLTCYFT [chain 1 E1G],-6.21 log2 (difference from the parental peptide)
13,chain 1 EEDDYTAYAPLHCYFT [chain 1 T12H],0.389 log2 (difference from the parental peptide)
14,chain 1 EEDDYTAYAPLMCYFT [chain 1 T12M],1.53 log2 (difference from the parental peptide)
15,chain 1 EEDDYTAYAPLCCYFT [chain 1 T12C],-7.61 log2 (difference from the parental peptide)
16,chain 1 EEDDYTAYAPLLCYFT [chain 1 T12L],2.69 log2 (difference from the parental peptide)
17,chain 1 EEDDYTAYMPLTCYFT [chain 1 A9M],-0.965 log2 (difference from the parental peptide)
18,chain 1 EEDDYTAYNPLTCYFT [chain 1 A9N],-3.82 log2 (difference from the parental peptide)
19,chain 1 EEDDYTAYYPLTCYFT [chain 1 A9Y],0.673 log2 (difference from the parental peptide)
20,chain 1 EEDDYTAYRPLTCYFT [chain 1 A9R],-5.91 log2 (difference from the parental peptide)
21,chain 1 EEDDYTAYTPLTCYFT [chain 1 A9T],-6.55 log2 (difference from the parental peptide)
22,chain 1 EEDDYTAYLPLTCYFT [chain 1 A9L],-1.81 log2 (difference from the parental peptide)
23,chain 1 EEDDYTAYCPLTCYFT [chain 1 A9C],-8.06 log2 (difference from the parental peptide)
24,chain 1 EEDDYTAYSPLTCYFT [chain 1 A9S],-6.72 log2 (difference from the parental peptide)

row,Variant,enrichment
1,chain 1 EEDDYTAYFPLTCYFT [chain 1 A9F],-2.77 log2 (difference from the parental peptide)
2,chain 1 EEDDYTAYIPLTCYFT [chain 1 A9I],-3.88 log2 (difference from the parental peptide)
3,chain 1 EEDDYTAYAVLTCYFT [chain 1 P10V],-9.35 log2 (difference from the parental peptide)
4,chain 1 EEDDYTAYATLTCYFT [chain 1 P10T],-5.84 log2 (difference from the parental peptide)
5,chain 1 EEDDYTAYALLTCYFT [chain 1 P10L],-6.31 log2 (difference from the parental peptide)
6,chain 1 EEDDYTAYAGLTCYFT [chain 1 P10G],-5.73 log2 (difference from the parental peptide)
7,chain 1 EEDDYYAYAPLTCYFT [chain 1 T6Y],4.88 log2 (difference from the parental peptide)
8,chain 1 EEDDYWAYAPLTCYFT [chain 1 T6W],7.55 log2 (difference from the parental peptide)
9,chain 1 EEDDYMAYAPLTCYFT [chain 1 T6M],1.73 log2 (difference from the parental peptide)
10,chain 1 EEDDYSAYAPLTCYFT [chain 1 T6S],0.379 log2 (difference from the parental peptide)
11,chain 1 EEDDYRAYAPLTCYFT [chain 1 T6R],-3.39 log2 (difference from the parental peptide)
12,chain 1 EEDDYGAYAPLTCYFT [chain 1 T6G],1.65 log2 (difference from the parental peptide)
13,chain 1 EEDDYCAYAPLTCYFT [chain 1 T6C],-7.51 log2 (difference from the parental peptide)
14,chain 1 ENDDYTAYAPLTCYFT [chain 1 E2N],-1.08 log2 (difference from the parental peptide)
15,chain 1 EVDDYTAYAPLTCYFT [chain 1 E2V],0.565 log2 (difference from the parental peptide)
16,chain 1 EDDDYTAYAPLTCYFT [chain 1 E2D],2.11 log2 (difference from the parental peptide)
17,chain 1 EMDDYTAYAPLTCYFT [chain 1 E2M],0.392 log2 (difference from the parental peptide)
18,chain 1 ETDDYTAYAPLTCYFT [chain 1 E2T],-1.16 log2 (difference from the parental peptide)
19,chain 1 ERDDYTAYAPLTCYFT [chain 1 E2R],-2.64 log2 (difference from the parental peptide)
20,chain 1 ELDDYTAYAPLTCYFT [chain 1 E2L],0.769 log2 (difference from the parental peptide)
21,chain 1 ESDDYTAYAPLTCYFT [chain 1 E2S],-0.165 log2 (difference from the parental peptide)
22,chain 1 EEDDNTAYAPLTCYFT [chain 1 Y5N],-6.68 log2 (difference from the parental peptide)
